The values below come from patent US20260166139A1 (AKESO BIOPHARMA, published 2026).

Positions count from the first letter of the chain named.

The target in test [1] is T1, CTLA4-mFc.
T1 construct: also called CTLA4ECD-mFc fusion protein; CTLA4 antigen
Put plainly: competitive ELISA, competitor B7-2. As to the method: (§1) After incubation at 37° C. for 40 minutes, the enzyme conjugated secondary antibody was added. After incubation at 37° C. for 30 minutes, the absorbance at 450 nm was detected on an ELISA plate reader.
Target sequence in this assay (chain, as listed by the source limits assumed): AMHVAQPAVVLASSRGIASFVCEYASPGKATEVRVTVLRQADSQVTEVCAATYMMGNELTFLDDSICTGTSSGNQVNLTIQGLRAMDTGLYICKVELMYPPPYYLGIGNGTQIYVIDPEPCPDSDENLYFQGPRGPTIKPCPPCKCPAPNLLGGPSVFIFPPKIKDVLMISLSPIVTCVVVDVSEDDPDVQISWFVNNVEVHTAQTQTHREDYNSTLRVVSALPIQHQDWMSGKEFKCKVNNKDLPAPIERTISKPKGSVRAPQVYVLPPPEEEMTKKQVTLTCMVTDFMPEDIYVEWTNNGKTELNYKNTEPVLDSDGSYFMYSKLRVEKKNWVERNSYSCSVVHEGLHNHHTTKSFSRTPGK

Test [2] addresses T1, CTLA4-mFc. Nature of the test: competitive ELISA, competitor B7-1. As to the method: as §1
Target sequence in this assay (chain, as listed by the source limits assumed): as above
Test [3] addresses T2, CTLA4 antigen on the surface of 293F-CTLA4 host cells (UniProt P16410 36-223, limits assumed).
T2 construct: whole, on cells
T2 sequence (looked up): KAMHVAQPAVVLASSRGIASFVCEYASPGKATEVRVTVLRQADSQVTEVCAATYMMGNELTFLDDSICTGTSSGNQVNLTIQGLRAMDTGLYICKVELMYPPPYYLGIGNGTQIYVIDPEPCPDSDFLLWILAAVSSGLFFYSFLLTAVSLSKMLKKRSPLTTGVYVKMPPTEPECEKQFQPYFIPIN
Put plainly: flow cytometry, 293F-CTLA4 cells. On the procedure: (§2) After addition of 300 μL PBS, the fluorescent signal was detected using the FITC channel on the flow cytometer.

Test [4] addresses T2, CTLA4 antigen on the surface of …. Nature of the test: flow cytometry, 293F-CTLA4 cells; antibody 1 nM. As to the method:
as §2

Test [5] concerns the target T3, CTLA4 antigen (NCBI Gene ID: 1493) obtained by TEV protease cleavage of CTLA4-mFc (Homo sapiens (Human), UniProt P16410 37-161).
T3 construct: also called the antigen CTLA4
T3 sequence: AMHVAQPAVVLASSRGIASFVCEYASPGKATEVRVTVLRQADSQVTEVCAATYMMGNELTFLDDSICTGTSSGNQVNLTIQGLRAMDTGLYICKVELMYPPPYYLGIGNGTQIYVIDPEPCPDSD
Nature of the test: BLI (Fortebio), antibody on AR2G sensor, CTLA4 in solution. As to the method: 2. […] After equilibration in PBST, the CTLA4 antigen was added for binding. […] Dissociation occurred in PBST.
Background: In BLI a coated tip is dipped into the sample, and binding shifts an interference pattern.

Test [6] concerns the target T2, CTLA4 antigen on the surface of …. Nature of the test: flow cytometry, 293F-CTLA4 cells; antibody 0.001 nM. As to the method:
as §2
(In general: A flow cytometer gives signals particle by particle.)

For test [7] the target is unchanged. Nature of the test: flow cytometry, 293F-CTLA4 cells; antibody 0.01 nM. On the procedure: as §2
Test [8] has the same target. Put plainly: flow cytometry, 293F-CTLA4 cells; antibody 5 nM. As to the method:
as §2

The target is the same in test [9]. Nature of the test: flow cytometry, 293F-CTLA4 cells; antibody 0.1 nM. As to the method:
as §2

Test [10] has the same target. Nature of the test: flow cytometry, 293F-CTLA4 cells; antibody 10 nM. As to the method: as §2
The target is the same in test [11]. Put plainly: flow cytometry, 293F-CTLA4 cells; antibody 25 nM. On the procedure: as §2
The target of test [12] is T4, human CTLA4 (human, UniProt P16410 36-161, limits assumed).
T4 construct: also called human CTLA4 antigen; CTLA4 protein
T4 sequence (looked up): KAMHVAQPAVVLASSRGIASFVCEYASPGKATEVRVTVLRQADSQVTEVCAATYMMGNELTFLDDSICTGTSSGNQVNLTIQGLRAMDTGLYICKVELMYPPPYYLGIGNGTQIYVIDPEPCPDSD
Put plainly: ELISA on coated CTLA4, source Human. On the procedure:
(§3) The ELISA plate was coated with CTLA4 at 4° C. over night. […] The enzyme conjugated secondary antibody was added for incubation for 30 min. Then, the absorbance at 450 nm was determined on an ELISA plate reader.

In test [13] the target is T1, CTLA4-mFc. Put plainly: competitive ELISA, competitor B7-1; first of three tests; competitor B7-1; first of three tests, the run with controls 10D1 5.15 nM and 11.2.1 1.073 nM. On the procedure: as §1
Test [14] concerns the target T1, CTLA4-mFc. Put plainly: competitive ELISA, competitor B7-2; first of three tests. As to the method:
as §1
In general terms: An ELISA detects its analyte on a solid surface through an enzyme-linked reagent.

For test [15], the target named is T1, CTLA4-mFc. Nature of the test: competitive ELISA, CTLA4-mFc coated, competitor B7/2-His; antibody 1 µg/ml. As to the method: as §1
The target of test [16] is T1, CTLA4-mFc. Put plainly: competitive ELISA, competitor B7-2; third of three tests. As to the method:
as §1

The target in test [17] is T1, CTLA4-mFc. Put plainly: competitive ELISA, competitor B7-2; second of three tests. On the procedure:
as §1

Test [18] addresses T1, CTLA4-mFc. Put plainly: competitive ELISA, competitor B7-1; second of three tests. As to the method:
as §1

The target in test [19] is T1, CTLA4-mFc. Put plainly: competitive ELISA, competitor B7-1; third of three tests. As to the method: as §1
For test [20], the target named is T5, monkey CTLA4-hFc (monkey).
T5 construct: also called monkey CTLA4 antigen
Nature of the test: ELISA on coated CTLA4, source Monkey. On the procedure:
as §3

B1: 8D2 recombinant antibody, 8D2(Re) (antibody, V domains shown)
VH: EVKLDETGGGLVQPGRPMKLSCVASGFTFSDNWMNWVRQSPEKGLEWLAQIRNKPYNYETYYSDSVKGRFTISRDDSKSSVYLQMNNLRGEDMGIYYCTAQFAYWGQGTLVTVSA
VL: DIQMTQSPASLSASVGETVTITCGTSENIYGGLNWYQRKQGKSPQLLIFGATNLADGMSSRFSGSGSGRQYSLKISSLHPDDVATYYCQNVLRSPFTFGSGTKLEI
Regarding B1, the results for the EC50 in test [1] and in test [2] were 0.153 nM and 0.514 nM, respectively.

B2: monoclonal antibody 8D2 (antibody, V domains shown)
VH: B1 VH
VL: B1 VL
notes: Murine antibody purified from hybridoma supernatant; also called mAb 8D2; antibody secreted by the CTLA4-8D2 hybridoma cell line LT001
For the molecule B2, in [3], the EC50 – broadly, the concentration that produces a half-maximal response – came out at 3.84 nM. In addition, the fluorescence intensity in test [4] was 25.5; in [6], 7.6; in [7], 7.7; in [8], 183; in test [9] it was 9.1; in [10], 639. For the same molecule, the fluorescence intensity in test [11] stood at 722. In addition, in test [5], the Kd (as a rule, the constant that tells how readily two partners part at equilibrium) was found to be 0.166 nM. The koff (commonly a measure of how fast the partners let go of each other) in test [5] was found to be 2.36e-05 s⁻¹. The kon (in general, the second-order rate constant of association) in test [5] was 142000 M⁻¹ s⁻¹.

B3: 8D2 recombinant antibody, 8D2(Re) (antibody, V domains shown)
VH: B1 VH
VL: B1 VL
In turn, B3 gave an EC50 in test [3] of 1.38 nM. The fluorescence intensity in test [4] is 321; in [6], 24.6; in test [7], 24.7; in test [8], 714; in test [9] it was 66.7; in [10] it was 898. In addition, in [11], the fluorescence intensity was 873.

B4: humanized antibody 8D2H2L15 (antibody, V domains shown)
VH: EVQLVESGGGLVQPGGSMRLSCAASGFTFSDNWMNWVRQAPGKGLEWLAQIRNKPYNYETYYSASVKGRFTISRDDSKNSVYLQMNSLKTEDTGVYYCTAQFAYWGQGTLVTVSS
VL: DIQMTQSPSSLSASVGDRVTITCRTSENIYGGLNWYQRKPGKSPKLLIYGATNLASGVSSRFSGSGSGTDYTLTISSLQPEDVATYYCQNVLSRHPGFGSGTKLEIK
On to B4, for which, in test [5], the Kd was 1.02 nM, the off-rate constant (koff) is 0.000465 s⁻¹ and the kon worked out at 454000 M⁻¹ s⁻¹. In test [12], this molecule showed an EC50 of 0.042 nM.

B5: humanized antibody 8D2H2L2 (antibody, V domains shown)
VH: B4 VH
VL: B4 VL with S93R, R94S, H95P, P96F, G97T
notes: also called 8D2H2L2(20150327); 8D2H2L2(20140422)
Consider B5, for which the half-maximal effective concentration (EC50) in test [13] came to 5.93 nM; in test [14], 1.64 nM; in [16] it was 0.301 nM; in [17], 0.368 nM; in [18], 2.97 nM; in test [19] it was 3.12 nM. The “absorbance at 450 nm” value in test [15] was 0.05.

B6: humanized antibody 8D2H3L3 (antibody, V domains shown)
VH: B4 VH with M18L, L48V, Y61E, S63A, V81A, G94A
VL: DIQMTQSPSSLSASVGDRVTITCRASENIYGGLNWYQQKPGKAPKLLIYGATSLASGVPSRFSGSGSGTDYTLTISSLQPEDFATYYCQNVLRSPFTFGSGTKLEIK
Turning to B6, the EC50 in test [3] turned out to be 4.54 nM; in [20] it was 0.385 nM; in test [12] it was 0.129 nM. The fluorescence intensity in test [4] was determined as 623; in test [6], 10.8; in test [7] it was 25.1; in test [8] it was 971; in [9], 108; in [10], 1080. Further, in test [11], the fluorescence intensity is 1090. For the same molecule, the Kd in test [5] worked out at 1.05 nM. This molecule registered a koff in [5] of 0.000327 s⁻¹. The kon in test [5] stood at 312000 M⁻¹ s⁻¹.

B7: humanized antibody 8D2H2L17 (antibody, V domains shown)
VH: B4 VH
VL: B4 VL with R94S, H95R
As for B7, in [5], binding was characterised by a dissociation constant (Kd) of 0.766 nM, the koff is 0.000352 s⁻¹ and the kon came to 459000 M⁻¹ s⁻¹. Also, the midpoint of the response in test [12], the EC50, lay at 0.047 nM.

B8: humanized antibody 8D2H3L3 (antibody, V domains shown)
VH: B4 VH with M18L, L48V, Y61E, S63A, V81A, G94A
VL: B6 VL
As for B8, the EC50 turned out to be 0.167 nM in test [1] and 2.14 nM in test [2].

B9: humanized antibody 8D2H1L1 (antibody, V domains shown)
VH: B4 VH with A64D
VL: B4 VL with P40Q, V58M, T74K, Q79H, E81D, S93R, R94S, H95P, P96F, G97T
For the molecule B9, the results for the EC50 in [1] and in test [2] were 0.178 nM and 2.48 nM, respectively.
